Experimental findings from article PMC5666081, “Solution structure of CXCL13 and heparan sulfate binding show that GAG binding site and cellular signalling rely on distinct domains” (Open Biology, 2017) are described below.

This assay concerns the target T1, ΔN-CXCL13 (murine CXCL13 residues 31-109 with the initiating methionine) (murine).
T1 chain: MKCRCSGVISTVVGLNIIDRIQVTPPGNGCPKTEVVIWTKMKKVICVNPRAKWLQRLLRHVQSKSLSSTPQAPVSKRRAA
In words: NMR titration; [15N,1H] correlation spectra at different protein concentrations; monomer and dimer signals in slow exchange; KD of dimer to monomers from integrated signals of monomer and dimer; T1/T2 relaxation; 20 mM phosphate, 100 mM NaCl, pH 6, 298 K; addition of HS tetrasaccharide dp4 (50 µM on 50 µM ΔN-CXCL13) increases the dimer signals. The settings on record: both partners purified.

B1: ΔN-CXCL13 (murine CXCL13 residues 31-109 with the initiating methionine) (domain or fragment)
chain: MKCRCSGVISTVVGLNIIDRIQVTPPGNGCPKTEVVIWTKMKKVICVNPRAKWLQRLLRHVQSKSLSSTPQAPVSKRRAA
modifications: initiating Met kept (piece 1); paper residue numbers are mature, offset +21 to the precursor; two disulfides expected from the chemokine fold / initiating Met kept (piece 1); paper residue numbers …
On to B1, for which the Kd came to 300 ± 100 µM and the “stoichiometry N” value came out at 2.

As usually defined, the Kd is a measure of binding affinity in units of concentration. The low end stands for tighter binding, the high end for weaker binding. Broadly, the stoichiometry N is a count of units in the complex or per binding partner.
